Data reported in patent publication US20200040057A1 (IMMATICS BIOTECHNOLOGIES, published 2020).
One block for each binder: values may come before it.

Legend:
HLA-B*07 = HLA-B*07 (human); test: UV peptide exchange ELISA; + = yield >10%
HLA-A*02:01 = HLA-A*02:01 (human); test: control peptide-MHC complex on beads, in vitro T-cell priming
Protocol: 800.000 beads/200 μl were coated in 96-well plates in the presence of 4×12.5 ng different biotin-pMHC, washed and 600 ng biotin anti-CD28 were added subsequently in a volume of 200 μl. Stimulations were initiated in 96-well plates by co-incubating 1×10⁶ CD8+ T cells with 2×10⁵ washed coated beads in 200 μl TCM supplemented with 5 ng/ml IL-12 (PromoCell) for 3 days at 37° C. Half of the medium was then exchanged by fresh TCM supplemented with 80 U/ml IL-2 and incubating was continued for four days at 37° C. This stimulation cycle was performed for a total of three times. […] Finally, multimeric analyses were performed by staining the cells with Live/dead near IR dye (Invitrogen, Karlsruhe, Germany), CD8-FITC antibody clone SK1 (BD, Heidelberg, Germany) and fluorescent pMHC multimers. For analysis, a BD LSRII SORP cytometer equipped with appropriate lasers and filters was used. Peptide specific cells were calculated as percentage of total CD8+ cells. Evaluation of multimeric analysis was done using the FlowJo software (Tree Star, Oregon, USA). In vitro priming of specific multimer+CD8+ lymphocytes was detected by comparing to negative control stimulations.

peptide exchange yield (HLA-B*07): 10 to 20%
Binder: SAAARALLP

peptide exchange yield (HLA-B*07): 10 to 20%
Binder: VPLPAGGGTVLT

binding result (HLA-A*02:01): binds
B1: DDX5-001 (YLLPAIVHI from DDX5) (peptide)
peptide: YLLPAIVHI
notes: Negative control peptide for stimulations; also called 447

The remaining lines, values behind:

Binder: LPLQQYKLV
peptide exchange yield (HLA-B*07): 10 to 20%

Binder: IPFSVDEI
peptide exchange yield (HLA-B*07): 10 to 20%

Binder: LPKPDLPQLI
peptide exchange yield (HLA-B*07): 10 to 20%

Binder: IPLEIQKL
peptide exchange yield (HLA-B*07): 10 to 20%

Binder: LPLKFFPII
peptide exchange yield (HLA-B*07): 10 to 20%

Binder: MLKTTLTAF
peptide exchange yield (HLA-B*07): 10 to 20%

Binder: AQNPAGTAL
peptide exchange yield (HLA-B*07): 10 to 20%
